# Reference: publication PMC12191924, “A new naphthalene-based fluorogenic substrate for cytochrome P450 4A11” (Biochemical Journal, 2025)
# T1: CYP4A11 (Homo sapiens, UniProt Q02928)
# T1 sequence (Q02928 5-519): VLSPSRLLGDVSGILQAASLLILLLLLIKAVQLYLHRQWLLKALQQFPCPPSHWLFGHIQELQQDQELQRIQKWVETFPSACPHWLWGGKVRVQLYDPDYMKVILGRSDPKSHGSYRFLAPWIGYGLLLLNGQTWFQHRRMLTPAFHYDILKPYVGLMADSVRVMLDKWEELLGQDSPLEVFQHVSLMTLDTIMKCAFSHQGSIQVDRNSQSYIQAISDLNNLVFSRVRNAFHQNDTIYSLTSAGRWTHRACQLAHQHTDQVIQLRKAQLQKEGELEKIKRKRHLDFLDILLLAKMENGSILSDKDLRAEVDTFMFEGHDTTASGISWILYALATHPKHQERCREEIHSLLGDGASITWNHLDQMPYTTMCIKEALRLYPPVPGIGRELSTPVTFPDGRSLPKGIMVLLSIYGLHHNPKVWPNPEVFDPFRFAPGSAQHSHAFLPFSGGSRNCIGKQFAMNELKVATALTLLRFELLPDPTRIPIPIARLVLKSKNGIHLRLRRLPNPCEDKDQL
# T2: CYP1A2 (Homo sapiens, UniProt P05177)
# T2 sequence (P05177 1-516): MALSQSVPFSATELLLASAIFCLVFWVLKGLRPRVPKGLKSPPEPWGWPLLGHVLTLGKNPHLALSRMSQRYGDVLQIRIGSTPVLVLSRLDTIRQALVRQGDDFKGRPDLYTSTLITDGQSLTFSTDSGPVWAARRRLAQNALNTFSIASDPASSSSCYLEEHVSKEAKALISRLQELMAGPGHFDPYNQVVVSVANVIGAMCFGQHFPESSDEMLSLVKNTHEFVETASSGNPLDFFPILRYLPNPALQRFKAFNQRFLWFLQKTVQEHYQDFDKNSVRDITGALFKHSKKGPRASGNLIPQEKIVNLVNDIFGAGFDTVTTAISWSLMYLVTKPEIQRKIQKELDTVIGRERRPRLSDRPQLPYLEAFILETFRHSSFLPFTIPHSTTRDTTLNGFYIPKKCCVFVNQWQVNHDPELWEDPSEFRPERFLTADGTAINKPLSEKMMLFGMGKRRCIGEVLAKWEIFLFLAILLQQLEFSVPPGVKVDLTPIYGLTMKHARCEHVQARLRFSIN
# B1: CYP1A2 (Homo sapiens) (protein)
# chain: ALSQSVPFSATELLLASAIFCLVFWVLKGLRPRVPKGLKSPPEPWGWPLLGHVLTLGKNPHLALSRMSQRYGDVLQIRIGSTPVLVLSRLDTIRQALVRQGDDFKGRPDLYTSTLITDGQSLTFSTDSGPVWAARRRLAQNALNTFSIASDPASSSSCYLEEHVSKEAKALISRLQELMAGPGHFDPYNQVVVSVANVIGAMCFGQHFPESSDEMLSLVKNTHEFVETASSGNPLDFFPILRYLPNPALQRFKAFNQRFLWFLQKTVQEHYQDFDKNSVRDITGALFKHSKKGPRASGNLIPQEKIVNLVNDIFGAGFDTVTTAISWSLMYLVTKPEIQRKIQKELDTVIGRERRPRLSDRPQLPYLEAFILETFRHSSFLPFTIPHSTTRDTTLNGFYIPKKCCVFVNQWQVNHDPELWEDPSEFRPERFLTADGTAINKPLSEKMMLFGMGKRRCIGEVLAKWEIFLFLAILLQQLEFSVPPGVKVDLTPIYGLTMKHARCEHVQARLRFSIN
# notes: purchased Gentest (Supersomes), now a part of Discovery Life Sciences; CYP1A2 is not in the lot list; host or cells: insect cells, recombinant baculovirus
# B2: CYP2C8 (Homo sapiens) (protein)
# chain: MEPFVVLVLCLSFMLLFSLWRQSCRRRKLPPGPTPLPIIGNMLQIDVKDICKSFTNFSKVYGPVFTVYFGMNPIVVFHGYEAVKEALIDNGEEFSGRGNSPISQRITKGLGIISSNGKRWKEIRRFSLTTLRNFGMGKRSIEDRVQEEAHCLVEELRKTKASPCDPTFILGCAPCNVICSVVFQKRFDYKDQNFLTLMKRFNENFRILNSPWIQVCNNFPLLIDCFPGTHNKVLKNVALTRSYIREKVKEHQASLDVNNPRDFIDCFLIKMEQEKDNQKSEFNIENLVGTVADLFVAGTETTSTTLRYGLLLLLKHPEVTAKVQEEIDHVIGRHRSPCMQDRSHMPYTDAVVHEIQRYSDLVPTGVPHAVTTDTKFRNYLIPKGTTIMALLTSVLHDDKEFPNPNIFDPGHFLDKNGNFKKSDYFMPFSAGKRICAGEGLARMELFLFLTTILQNFNLKSVDDLKNLNTTAVTKGIVSLPPSYQICFIPV
# notes: purchased Gentest (Huntsville, AL), now a part of Discovery Life Sciences lot 81760; host or cells: insect cells, recombinant baculovirus
# Columns and labels:
# [1] = biological target: T1, CYP4A11; test: Probing 6-methoxy-2-naphthoic acid as a P450 substrate (data not shown); format: biochemical
# Description: (§1) Thus, we decided to probe the derivatives of methoxynaphthalene as CYP4A11 substrates. The simplest potential methoxynaphthalene-based P450 substrate is 6-methoxy-2-naphthoic acid, a close analog of naproxen, which is known to be metabolized by P450 enzymes. […] This molecule is apparently too small to be a CYP4A11 substrate. Thus, we searched commercially available derivatives of methoxynaphthalene to find a compound with a longer carboxylic acid chain substituent in the naphthalene ring. This search identified MONACRA (Figure 1) as a potential CYP4A11 substrate. […] We attempted to design a fluorimetric assay of its metabolism suitable for high-throughput studies in HLM.
# [2] = biological target: T2, CYP1A2; format: biochemical
# Description: as §1
# [3] = substrate: COc1ccc2cc(C=CC(=O)O)ccc2c1; test: MONACRA demethylation by recombinant CYP1A2 in Supersomes, high-throughput fluorimetric assay; format: biochemical, human; details: other: CYP1A2 Supersomes; substrate inhibition equation; ± = confidence interval P=0.05
# Method: (§2) Based on these observations, we developed a high-throughput automated assay applicable for studying SSPs of MONACRA metabolism by microsomal P450 enzymes. In this procedure, the incubation mixtures containing an NADPH-generating system and various substrate concentrations are placed in a multiwell plate and preincubated at 30°C in a thermostated shaker. The reaction is started by adding microsomal suspension to the final concentration of 0.3–1 mg/ml of microsomal protein or 0.02–0.1 µM of recombinant P450 enzymes in Supersomes. Following the incubation for 20 min at 30°C, the reaction is quenched by adding trichloroacetic acid (final concentration […]). After supplementing the wells with Na-glycine buffer (pH 10.4, final concentration 2.1 M), the plates are subjected to scanning the fluorescence spectra with excitation at 375 nm. This assay, which is described in detail in Materials and Methods, allows reliable detection of the concentrations of HONACRA as low as 0.1 µM.
# (§3) We used the high-throughput activity assay described above to probe MONACRA metabolism by 16 human microsomal P450 enzymes, namely CYP1A2, CYP2A6, CYP2B6, CYP2C8, CYP2C9, CYP2C19, CYP2D6, CYP2E1, CYP2J2, CYP3A4, CYP3A5, CYP4A11, CYP4F2, CYP4F3A, CYP4F3B, and CYP4F12. […]
# [4] = substrate: COc1ccc2cc(C=CC(=O)O)ccc2c1; test: MONACRA demethylation by recombinant CYP2C8 in Supersomes, high-throughput fluorimetric assay; format: biochemical, human; details: other: CYP2C8 Supersomes; Michaelis–Menten fit
# Method: as §2, §3
molecule,measurement,setting,value
COc1ccc2cc(C(=O)O)ccc2c1 [6-methoxy-2-naphthoic acid],metabolism by CYP4A11,[1],not metabolized by CYP4A11
same,O-demethylation by P450 enzymes,[2],undergoes O-demethylation catalyzed predominantly by CYP1A2
B1,Km,[3],161 ± 34 µM
same,kcat,[3],0.733 ± 0.1 s⁻¹
B2,Km,[4],456 ± 188 µM
same,kcat,[4],0.0267 ± 0.0117 s⁻¹
